From the domain aggregation screens of Martell et al. (2025)

experiment: soluble fraction after stress (log2 fold change); higher = more stays soluble; pooled small domains, quantitative proteomics; details: stress: pH 4
Procedure, shortened: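 With high-throughput quantitative proteomics, pooled custom libraries of small protein domains were measured after pH 4 stress. Each domain's soluble amount after the stress gives a fold change taken as aggregation propensity. Higher log2 values mean more of the domain stayed soluble.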

| Sequence | soluble fraction (log2) |
| --- | --- |
| HMQARSQQTIQTLFKAAAQILDKEGEAGLSTNKVAAAAGFSIGTLYQYFPSKEVLIQAMAAR | 0.0662 |
| HMQASISVDEAKSIALNYAKFTADQVVYTKSELDYDDGRAEYEIEFYAGGKEYSFTIDAVSGTVLEMEI | 0.107 |
| HMQATDEEIENFTSSAITAYKLTKEEGYIISMRDMKPIMEIVKTEYPMANGKVVSKVMNNYING | 0.22 |
| HMQDELSSSVIEEAVVVLLLRAANIDGKKDEQEIEAIKRLIIQQFNYDEEKADILITSASEK | -0.191 |
| HMQDGTILPGQKTAIRSLATSGGYDSQDLDTYLATTYGKSIDGLTRTEGADVIKAFQAGTVAK | 0.165 |
| HMQDLEIKINLGMTYYEVREAIGSPDIIDKINQYGRDFQMWTYYIDDKTKRYYFEDHLLTKI | -1.65 |
| HMQDLPPIHLSRGMTDYTLVRSRRRTLSMELKRDGTVVVHAPLRLGVEKIDAFVAAHEAWLARARTRQAER | 0.196 |
| HMQDNPELVARIEKAAARGTSSMSDWERSFMGSLLDSAKKWGRLTAKQHEVFQRIEKKTDPAHQAAVS | 0.0292 |
| HMQDPRITRTRGLILQAFDALLVEKGFHALSVQAIAGRAGINRATFYAHFADKYALLDTSIQE | 0.081 |
| HMQDREKNIAEGRDIIEHEFMRLGISLSRYDLDGLASKLNVKAGDDVLAGVGAGDIRVSQIISQLG | -0.747 |
| HMQDTVKNVFGAFTIFTDKPFAIGDTINVNGLEGTVVDVGMRSTQILGYDRRITSYPNYKITDSSIVNISS | -0.636 |
| HMQDVVFTVDKDQTGAEIGDMLYEKGIISSPTTFRLALRLTGSMDKLQQGYYQIPQNASLRQVIALLQKG | -0.522 |
| HMQDYYTQSDFARYLEDKGIHFPQNKIAVYRKRGKFPKEDLVVAGTPYWSKYTVESFAKHLLEQQN | 0.302 |
| HMQEAATSLNAKILAKLRENNGTLAVSDKSDPALISSLFGVSKGNFKKAIGALYKNGQIVIHADRIEL | 0.00478 |
| HMQEDQKTSIFDIEGVEKGVASVLSSIKVEIVSDLLEADMDDILKSGKISEDDLDGVYEAVQNFVER | -1.28 |
| HMQELNDQQRLAILNEWNNRATNPPSLLELVRVAFPDAEGADGRSWHGKKVKEFLSTRQIKARAS | -0.282 |
| HMQENFYMILESEERRVLDVLVADQPESVATFLKLVSPFPNYKIILEHINEKALDFYEETVI | -0.666 |

| Sequence | soluble fraction (log2) |
| --- | --- |
| HMQESTILPAQKSAISSLATSAGFSSENLKRYLLQNYGVDLKDLTRSQGAEVIKAFQSGNVSKP | 0.246 |
| HMQETPAMLAMKELPTEDEQRIYMMLQEDYDSVLLVKTIRNAFSQNPQLTRQQLLPIILTWLMT | -1.08 |
| HMQGATVYIKSDDIGKTTNEQGSFNFDKLKKNRYTLEISFIGYETKNLQAYTDRENIVQLNRKS | -0.527 |
| HMQGEVPYSQFLTEVDRGDVQSVVIEGNNISGFYKNSSTAFTVVAPDDPKLVERLMEQGVEVKARPV | ≥ 0.43 |
| HMQGEVVTNRSVIDMSRAGLSADIIRAKILRSDTNFDVTAKALIELKESGVPDDIIALMLERADS | -0.218 |
| HMQGIPVTVTAERANLRSGPGTSFDKLGQVVQGDVLTLLEVQNDWYKVKTAEGKTAFVAAYLVNSP | 0.0179 |
| HMQGQADFTQGIANFTQYPVGSRITVFTLEGRRVAVVEIGKDGTAQLDMRNKPAGVYIVNTGKQSFKWLK | -0.0678 |
| HMQGRIYLNPDLAEKLRAQYAAYPHWSYLLHTENLGALVRKTESLGPMPSYSTILRYMHANDMRKRNKP | -0.149 |
| HMQGVNLTETEKNFIAQVLSPLLKQGQSLYQIRTNHPEIKLSVKTLYTYIESGIFKESGINNFSLRRQ | -0.319 |
| HMQILNVFSKHGIKPISPQIGDKFDPQLHEAMFEAPVPGTKAGDIIEVSSEGFMLYDRLLRPAHVGVSSN | -0.138 |
| HMQILPAFLPENPELRARLANHSLEELTEILKQYKTLHNSTDVDTVKRAIRAIEIEEYYAVHPV | -0.635 |
| HMQINLKQSSDEELVKIITVQVHHYEPHTVKAAEAEIERRGIDKMRMAHLVKKVAQENTAVQEIQD | 0.134 |
| HMQISDDSELIKIVDNILANSQKQIDDYHNGKTNLFGFFVGQVMKETKGKANPVKVNEILKDKL | 0.102 |
| HMQISDSSLIAKTVATVILENPEAVSDYLGGKHSVVRFMVGQIMKKTQGKANPKMATEMLETALNDL | 0.352 |
| HMQISDTTELSTLITKVLSEQSDALVDFKNPKKQKQVIGYLTGQVLRASQGKANPGLVRSLLEEQLSALDS | 0.0677 |
| HMQISMQNIASVKIDDLSDEQIQEFSTKYTAAGYSFPDVENVAKQKGMPSSEIEKLRQRVLTAQNTQEK | -0.346 |
| HMQISSSEVLEKVVDEILSANPKSIEDYKNGKLQAAGFLMGQVMKATKGQANPAVAKELIEAKLKD | 0.124 |
